Measurements reported in PMC6978347.

B1: AtNBR1^1–94 (AtNBR1–PB1) [Arabidopsis thaliana] / MBP-tagged wild-type AtNBR1–PB1^1–94 [Arabidopsis thaliana] (parent)
chain 1: MESTANALVVKVSYGGVLRRFRVPVKANGQLDLEMAGLKEKIAALFNLSADAELSLTYSDEDGDVVALVDDNDLFDVTNQRLKFLKINVNAGVS
chain 2: B1 chain 1

Variants of: B1
Experiment: pull-down (MBP pulldown, band quantification)
Conditions: with MBP-tagged wild-type AtNBR1–PB1^1–94 [Arabidopsis thaliana];; read off a plot

Variant	ratio to parent
chain 1 MESTANALVVKVSYGGVLRRFRVPVKANGQLDLEMAGLKEKIAALFNLSADAELSLTYSDEDGAVVALVDDNDLFDVTNQRLKFLKINVNAGVS	0.27
chain 1 MESTANALVVKVSYGGVLRRFRVPVKANGQLDLEMAGLKEKIAALFNLSADAELSLTYSAEAGDVVALVDDNDLFDVTNQRLKFLKINVNAGVS	0.06
chain 1 MESTANALVVKVSYGGVLRRFRVPVKANGQLDLEMAGLKEKIAALFNLSADAELSLTYSDADGDVVALVDDNDLFDVTNQRLKFLKINVNAGVS	0.22

Second part, the variant after the results:

ratio to parent	Variant
0.04	chain 1 MESTANALVVAVSYGGVLRRFRVPVKANGQLDLEMAGLKEKIAALFNLSADAELSLTYSAEDGDVVALVDDNDLFDVTNQRLKFLKINVNAGVS
0.01	chain 1 MESTANALVVKVSYGGVLAAFRVPVKANGQLDLEMAGLKEKIAALFNLSADAELSLTYSDEDGDVVALVDDNDLFDVTNQRLKFLKINVNAGVS
0.32	chain 1 MESTANALVVAVSYGGVLRRFRVPVKANGQLDLEMAGLKEKIAALFNLSADAELSLTYSDEDGDVVALVDDNDLFDVTNQRLKFLKINVNAGVS
